For assay [1], the target named is T1, GPRC5D CAR GP5DB83-HL expressed on SupT1 cells.
T1 construct: Chimeric antigen receptor with the GP5B83 scFv in VH-VL order; also called GP5DB83-HL CAR; CAR 1 (GP5B83-HL)
Put plainly: flow cytometry on GPRC5D CAR (GP5DB83-HL) SupT1 cells, unconjugated GP5B318 detected with PE-goat anti-mouse IgG, PE MFI. The procedure:
SupT1 cells expressing GP5DB83-HL were compared to parental CAR-SupT1 cells. SupT1 cells expressing GP5DB83-HL and parental CAR-SupT1 cells were stained with near IR LIVE/DEAD fluorescent reactive dye on ice for 20 mins. After incubation, the cells were washed and resuspended in BSA stain buffer Cells (100,000 cells/well) were plated in a 96 well plate and incubated with increasing concentrations of GP5B318 for 30 minutes on ice with and without 10 μg/mL CAR-Fc Fusion protein, GP5B83_N24T_N315-HL-hu Fc-scFv (GP5B30.002). Following incubation, the samples were washed with BSA stain buffer and stained with PE-goat anti-mouse IgG polyclonal to detect bound antibody on live SupT1 cells. After incubation, washing, and fixation, the samples were acquired on a 10 color FACSCanto II flow cytometer. Analysis was done using FlowJo and the PE median fluorescent intensity of live SupT1 cells is plotted in FIG. 3. […] No binding was detected on CAR-SupT1 parental cells.

Assay [2] deals with T2, GP5B305.
T2 construct: Used as the analyte in the ProteOn assay ('Antigens (scFV Fc Fusions)'); not shown: Hinge/Fc of HC2; all of HC1 (CD3B376 Fab heavy chain with C-terminal BCMB516-LH-scFv); CD3B376 light chain
T2 sequence (scFv, as listed by the source limits assumed): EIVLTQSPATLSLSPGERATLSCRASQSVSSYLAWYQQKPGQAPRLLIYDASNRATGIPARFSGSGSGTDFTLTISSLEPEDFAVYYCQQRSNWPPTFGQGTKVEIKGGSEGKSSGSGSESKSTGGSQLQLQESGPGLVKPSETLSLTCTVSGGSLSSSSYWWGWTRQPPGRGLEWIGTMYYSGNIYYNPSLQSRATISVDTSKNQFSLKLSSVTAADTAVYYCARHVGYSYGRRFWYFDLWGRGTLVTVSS
Put plainly: SPR (ProteOn XPR36), mAb captured on anti-mouse Fc, antigen 50 nM to 0.2 nM in solution. The procedure:
ProteOn XPR36 system (BioRad) was used to perform binding assays. ProteOn GLC chips (BioRad, Cat #176-5011) were coated with Anti-Mouse Fc antibody. Library Antibodies (Mouse IgG2a) diluted to 0.25 ug/ml to 1 ug/ml to reach approximately 100-200RL. Antigens (scFV Fc Fusions) are associated at 50 nM to 0.2 nM, 1:4 dilutions for 3 minutes. Dissociation for 30 mins. The results of the assay (Table 1 below) show picomolar affinity of GP5B318 with GP5B305. GP5B305 is a bi-specific antibody that includes HCl N-Terminal CD3B376-Fab/C-Terminal BCMB516-LH-scFv* and HC2 N-Terminal GP5B83 N23T, N30S-LH-scFv*.

In assay [3] the target is T1, GPRC5D CAR GP5DB83-HL expressed on …. Description: flow cytometry on GPRC5D CAR (GP5DB83-HL) SupT1 cells, directly PE-conjugated GP5B318, PE MFI. How it is done:
GP5B318 was conjugated to R-PE as described above and tested for binding to GP5DB83-HL SupT1 in the presence or absence of 10 μg/mL GP5DB83-scFv Fc fusion protein to assess the specificity of GP5B318 binding to GP5DB83-HL CAR and ensure CAR detection was not affected by PE labeling. GP5DB83-HL SupT1 cells were stained with near IR LIVE/DEAD fluorescent reactive dye in 50 mL tube on ice for 20 mins. After incubation, the cells were washed and resuspended in BSA stain buffer to 2×10⁶ cells/mL. 100,000 cells/well were seeded in 96 well plate and incubated with increasing concentrations of PE-GP5B318 and 10 μg/mL GP5DB83-scFv Fc for 45 minutes on ice. After incubation, washing, and fixation, the samples were acquired on a 10 color FACSCanto II flow cytometer. Analysis was performed using FlowJo analysis software and the PE median fluorescent intensity of live SupT1 cells is plotted in FIG. 4.

This note sets out measurements from US20220064284A1 (Janssen / Centocor, published 2022).

Usually EC50 stands for the midpoint of the concentration-response curve. The low end stands for an effect from little substance, the high end for a need for much substance. The Kd is the free concentration of one partner at which half of the binding sites on the other are occupied at equilibrium, for simple one-to-one binding. Higher therefore signals lower affinity. One may read the koff as the rate constant with which the complex falls apart. Low readings indicate a long-lived complex, high ones a short-lived complex. As usually defined, the kon is a measure of how fast the partners come together. Low readings indicate slow association, high ones fast association.

T1 sequence (chain, as listed by the source limits assumed): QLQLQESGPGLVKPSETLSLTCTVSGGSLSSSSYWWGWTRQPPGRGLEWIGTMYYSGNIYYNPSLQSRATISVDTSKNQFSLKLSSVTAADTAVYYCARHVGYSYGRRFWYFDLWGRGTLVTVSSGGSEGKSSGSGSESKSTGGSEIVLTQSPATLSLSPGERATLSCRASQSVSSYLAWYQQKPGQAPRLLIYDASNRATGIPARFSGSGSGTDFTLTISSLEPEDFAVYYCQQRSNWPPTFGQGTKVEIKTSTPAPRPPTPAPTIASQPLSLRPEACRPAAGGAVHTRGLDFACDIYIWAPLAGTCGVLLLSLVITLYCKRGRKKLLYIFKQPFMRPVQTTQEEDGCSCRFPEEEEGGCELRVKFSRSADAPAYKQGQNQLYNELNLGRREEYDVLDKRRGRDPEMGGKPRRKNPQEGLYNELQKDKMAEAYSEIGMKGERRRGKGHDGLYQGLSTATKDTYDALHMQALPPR

B1: GP5B318 (antibody, mouse IgG2a, kappa, V domains shown)
VH: EVQLVQSGAEVKKPGESLKISCKGSGYSFTSYWIGWVRQMPGKGLEWMGIIYPGDSDTRYSPSFQGQVTISADKSISTAYLQWSSLKASDTAMYYCARGWDYGTGEFDYWGQGTLVTVSS
VL: EIVLTQSPGTLSLSPGERATLSCRASQSIGNWLNWYQQKPGKAPKLLIYYASSLQSGVPSRFSGSGSGTDFTLTISSLQPEDFAVYYCQQSLSFPITFGQGTKVEIKR
notes: made in HEK293 Expi or CHO; also called anti-idiotypic antibody GP5B318; chimeric mAb with human VH/VL and murine IgG2a/k
In assay [1], B1 had an EC50 of 0.03 µg/mL. In assay [2], this molecule displayed a dissociation constant Kd of less than 2.9 pM, a koff of less than 2.9e-05 s⁻¹ and a kon greater than 1e+07 M⁻¹ s⁻¹.

B2: PE-GP5B318 (antibody, mouse IgG2a, kappa, V domains shown)
VH: B1 VH
VL: B1 VL
modifications: antibody conjugated to R-phycoerythrin, purified to a 1:1 PE:antibody ratio; site not stated
notes: GP5B318 labelled with phycoerythrin (Expedeon kit); also called PE-P5B318; GP5B318 conjugated to R-PE
B2: the EC50 in assay [3] is 0.1 µg/mL.
